Each block holds one molecule with its values, some of them ahead of it.
Columns and labels:
MOD-5000/TF complex [1] = target: MOD-5000/TF complex (UniProt P08709); assay: cell-based or functional assay
MOD-5014/TF complex [2] = target: MOD-5014/TF complex (UniProt P13726); assay: cell-based or functional assay
[3] = target: MOD-5000 (commercial recombinant hFVIIa, NovoSeven) (UniProt P08709)
MOD-5000/TF complex [4] = target: MOD-5000/TF complex (UniProt P08709)
[5] = system: MOD-5014 (activated CTP-modified human Factor VII, FVIIa-CTP3)
MOD-5014/TF complex [6] = target: MOD-5014/TF complex (UniProt P13726)
[7] = target: T1, Tissue factor (TF), P13726
T1 chain: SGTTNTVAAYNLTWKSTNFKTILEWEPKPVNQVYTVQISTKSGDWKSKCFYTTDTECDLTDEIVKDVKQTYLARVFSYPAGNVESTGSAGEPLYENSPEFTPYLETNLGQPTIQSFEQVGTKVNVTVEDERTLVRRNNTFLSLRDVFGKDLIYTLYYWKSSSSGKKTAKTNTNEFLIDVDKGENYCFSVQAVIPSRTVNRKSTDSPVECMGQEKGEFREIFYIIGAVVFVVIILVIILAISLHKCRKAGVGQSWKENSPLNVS

[8] = target: T2, MOD-5014 (activated CTP-modified human Factor VII, FVIIa-CTP3) (human, UniProt P08709 61-212, O-glycans on the CTP serines, sialylated; N-glycans (positions not given); gamma-carboxyglutamic acid (Gla) residues (highly gamma carboxylated; positions not given)); assay: titration of FVIIa (0-2 nM) on fixed TF (10 pM), read out as rate of FX activation (Pefachrome FXa)
T2 construct: also called FVIIa-CTP-CTP-CTP; FVIIa-3*CTP
T2 sequence (light): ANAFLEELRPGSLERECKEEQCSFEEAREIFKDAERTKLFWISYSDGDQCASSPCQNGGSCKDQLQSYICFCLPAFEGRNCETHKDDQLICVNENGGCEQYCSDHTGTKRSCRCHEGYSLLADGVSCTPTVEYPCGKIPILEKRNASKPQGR
T2 sequence (heavy): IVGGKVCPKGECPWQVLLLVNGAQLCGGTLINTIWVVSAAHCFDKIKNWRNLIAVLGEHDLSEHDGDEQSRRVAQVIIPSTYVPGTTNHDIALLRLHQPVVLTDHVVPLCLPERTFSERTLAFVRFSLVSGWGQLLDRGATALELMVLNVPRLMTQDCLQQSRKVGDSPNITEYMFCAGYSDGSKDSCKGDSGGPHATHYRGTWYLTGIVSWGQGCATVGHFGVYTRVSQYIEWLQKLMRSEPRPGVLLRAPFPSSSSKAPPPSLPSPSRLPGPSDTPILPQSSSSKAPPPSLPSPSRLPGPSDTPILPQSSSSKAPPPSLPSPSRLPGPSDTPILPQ
From the text: Cleavage of synthetic substrate is converted to FXa concentration by a standard curve.

Molecule: Factor X (FX)
Km of FX activation by lipid-bound FVIIa without TF [3]: 0.878 µM
Vmax of FX activation by lipid-bound FVIIa without TF [3]: 0.253 nM FXa/min
Km of FX activation by FVIIa/TF (MOD-5000/TF complex [4]): 0.14 µM
Vmax of FX activation by FVIIa/TF as a function of FX concentration (MOD-5000/TF complex [4]): 1.78 nM FXa/min
Km of FX activation by lipid-bound FVIIa without TF [5]: 0.848 µM
Vmax of FX activation by lipid-bound FVIIa without TF [5]: 0.115 nM FXa/min
rate of FX activation on a lipid surface in the absence of TF relative to MOD-5000 [5]: The rate of FX activation on a lipid surface in the absence of TF is lower for MOD-5014 (45%) relative to MOD-5000
Km of FX activation by FVIIa/TF (MOD-5014/TF complex [6]): 0.12 µM
Vmax of FX activation by FVIIa/TF as a function of FX concentration (MOD-5014/TF complex [6]): 1.64 nM FXa/min
turnover of FX relative to MOD-5000 (MOD-5014/TF complex [6]): When bound to TF, MOD-5014 had a slightly reduced turnover of FX (92%) relative to MOD-5000

B1: MOD-5014 (activated CTP-modified human Factor VII, FVIIa-CTP3) (protein)
chain 1: ANAFLEELRPGSLERECKEEQCSFEEAREIFKDAERTKLFWISYSDGDQCASSPCQNGGSCKDQLQSYICFCLPAFEGRNCETHKDDQLICVNENGGCEQYCSDHTGTKRSCRCHEGYSLLADGVSCTPTVEYPCGKIPILEKRNASKPQGR
chain 2: IVGGKVCPKGECPWQVLLLVNGAQLCGGTLINTIWVVSAAHCFDKIKNWRNLIAVLGEHDLSEHDGDEQSRRVAQVIIPSTYVPGTTNHDIALLRLHQPVVLTDHVVPLCLPERTFSERTLAFVRFSLVSGWGQLLDRGATALELMVLNVPRLMTQDCLQQSRKVGDSPNITEYMFCAGYSDGSKDSCKGDSGGPHATHYRGTWYLTGIVSWGQGCATVGHFGVYTRVSQYIEWLQKLMRSEPRPGVLLRAPFPSSSSKAPPPSLPSPSRLPGPSDTPILPQSSSSKAPPPSLPSPSRLPGPSDTPILPQSSSSKAPPPSLPSPSRLPGPSDTPILPQ
Vmax of FX activation at saturation of TF with FVIIa [7]: 1.3 nM FXa/min
k2, rate of Pefachrome FVIIa substrate cleavage by the VIIa/TF complex (mol pNA/min/mol VIIa/TF) [7]: 357

B2: Tissue factor (TF) (receptor, UniProt P13726 33-295, looked up)
chain: SGTTNTVAAYNLTWKSTNFKTILEWEPKPVNQVYTVQISTKSGDWKSKCFYTTDTECDLTDEIVKDVKQTYLARVFSYPAGNVESTGSAGEPLYENSPEFTPYLETNLGQPTIQSFEQVGTKVNVTVEDERTLVRRNNTFLSLRDVFGKDLIYTLYYWKSSSSGKKTAKTNTNEFLIDVDKGENYCFSVQAVIPSRTVNRKSTDSPVECMGQEKGEFREIFYIIGAVVFVVIILVIILAISLHKCRKAGVGQSWKENSPLNVS
Kd [8]: 3 pM

Other lines, results leading:

k, rate constant of loss of FVIIa/TF activity with AT and heparin (MOD-5000/TF complex [1]): 0.354 min⁻¹
k, rate constant of loss of FVIIa/TF activity with AT and heparin (MOD-5014/TF complex [2]): 0.217 min⁻¹
rate of inhibition by AT relative to MOD-5000 (MOD-5014/TF complex [2]): 62%
Molecule: anti-thrombin (AT) (from UniProt P01008 33-464)

sensitivity to TFPI inhibition of FXa generation relative to MOD-5000 (MOD-5014/TF complex [2]): 124%
Molecule: tissue factor pathway inhibitor (TFPI) (from UniProt P10646 29-304)
